US20020142976A1, “Materials and methods for modulating differentiation” (ICOS Corporation, priority 1998, published 2002)

Target: T1, ATR (Mus musculus, UniProt Q9JKK8)
T1 construct: from tissue; host or cells: mouse testes extract
Test: MyoD phosphorylation (ATR kinase) assay with MyoD-derived peptide substrates
Type: biochemical
Details: in vitro kinase assay, 32P-γATP, room temperature 40 minutes
Protocol: ATR was captured on a 96 well plate previously coated first with goat anti-mouse antibodies (Pierce) and secondly with anti-ATR antibody 224C. A hybridoma which secretes antibody 224C was deposited with the American Type Culture Collection (ATCC), 12301 Parklawn Drive, Rockville, Md. 20852 on Nov. 7, 1996 and assigned ATCC Accession Nos. HB 12233. The 224C antibody was added to the plate at a concentration of […] in BT blocking buffer and incubated for at least 30 hours at 4° C. The wells were washed with TBS containing 0.05% Tween® 20 and mouse testes extract (prepared as described in Example 6 of WO 97/18323 published May 22, 1997 from International Application No. PCT/US96/19337, incorporated herein by reference) was added. […]
The supernatant, containing the ^32P-labeled peptide was transferred to P81 phosphocellulose paper, the paper was washed three times with 100 mM phosphoric acid (to remove unincorporated label) and once with ethanol, and Cerenkov radiation (in counts per minute, cpm) was counted in a scintillation counter.
MyoD is a 319 amino acid transcription factor that is often phosphorylated in cells. As described in Example 6 (of WO 97/18323), it has been determined that ATR phosphorylates MyoD in in vitro kinase assays and the target serine residue in myoD has been identified using a MyoD deletion peptide, B-HLH containing amino acids 102 through 165. […]

T1 sequence (Q9JKK8 whole entry): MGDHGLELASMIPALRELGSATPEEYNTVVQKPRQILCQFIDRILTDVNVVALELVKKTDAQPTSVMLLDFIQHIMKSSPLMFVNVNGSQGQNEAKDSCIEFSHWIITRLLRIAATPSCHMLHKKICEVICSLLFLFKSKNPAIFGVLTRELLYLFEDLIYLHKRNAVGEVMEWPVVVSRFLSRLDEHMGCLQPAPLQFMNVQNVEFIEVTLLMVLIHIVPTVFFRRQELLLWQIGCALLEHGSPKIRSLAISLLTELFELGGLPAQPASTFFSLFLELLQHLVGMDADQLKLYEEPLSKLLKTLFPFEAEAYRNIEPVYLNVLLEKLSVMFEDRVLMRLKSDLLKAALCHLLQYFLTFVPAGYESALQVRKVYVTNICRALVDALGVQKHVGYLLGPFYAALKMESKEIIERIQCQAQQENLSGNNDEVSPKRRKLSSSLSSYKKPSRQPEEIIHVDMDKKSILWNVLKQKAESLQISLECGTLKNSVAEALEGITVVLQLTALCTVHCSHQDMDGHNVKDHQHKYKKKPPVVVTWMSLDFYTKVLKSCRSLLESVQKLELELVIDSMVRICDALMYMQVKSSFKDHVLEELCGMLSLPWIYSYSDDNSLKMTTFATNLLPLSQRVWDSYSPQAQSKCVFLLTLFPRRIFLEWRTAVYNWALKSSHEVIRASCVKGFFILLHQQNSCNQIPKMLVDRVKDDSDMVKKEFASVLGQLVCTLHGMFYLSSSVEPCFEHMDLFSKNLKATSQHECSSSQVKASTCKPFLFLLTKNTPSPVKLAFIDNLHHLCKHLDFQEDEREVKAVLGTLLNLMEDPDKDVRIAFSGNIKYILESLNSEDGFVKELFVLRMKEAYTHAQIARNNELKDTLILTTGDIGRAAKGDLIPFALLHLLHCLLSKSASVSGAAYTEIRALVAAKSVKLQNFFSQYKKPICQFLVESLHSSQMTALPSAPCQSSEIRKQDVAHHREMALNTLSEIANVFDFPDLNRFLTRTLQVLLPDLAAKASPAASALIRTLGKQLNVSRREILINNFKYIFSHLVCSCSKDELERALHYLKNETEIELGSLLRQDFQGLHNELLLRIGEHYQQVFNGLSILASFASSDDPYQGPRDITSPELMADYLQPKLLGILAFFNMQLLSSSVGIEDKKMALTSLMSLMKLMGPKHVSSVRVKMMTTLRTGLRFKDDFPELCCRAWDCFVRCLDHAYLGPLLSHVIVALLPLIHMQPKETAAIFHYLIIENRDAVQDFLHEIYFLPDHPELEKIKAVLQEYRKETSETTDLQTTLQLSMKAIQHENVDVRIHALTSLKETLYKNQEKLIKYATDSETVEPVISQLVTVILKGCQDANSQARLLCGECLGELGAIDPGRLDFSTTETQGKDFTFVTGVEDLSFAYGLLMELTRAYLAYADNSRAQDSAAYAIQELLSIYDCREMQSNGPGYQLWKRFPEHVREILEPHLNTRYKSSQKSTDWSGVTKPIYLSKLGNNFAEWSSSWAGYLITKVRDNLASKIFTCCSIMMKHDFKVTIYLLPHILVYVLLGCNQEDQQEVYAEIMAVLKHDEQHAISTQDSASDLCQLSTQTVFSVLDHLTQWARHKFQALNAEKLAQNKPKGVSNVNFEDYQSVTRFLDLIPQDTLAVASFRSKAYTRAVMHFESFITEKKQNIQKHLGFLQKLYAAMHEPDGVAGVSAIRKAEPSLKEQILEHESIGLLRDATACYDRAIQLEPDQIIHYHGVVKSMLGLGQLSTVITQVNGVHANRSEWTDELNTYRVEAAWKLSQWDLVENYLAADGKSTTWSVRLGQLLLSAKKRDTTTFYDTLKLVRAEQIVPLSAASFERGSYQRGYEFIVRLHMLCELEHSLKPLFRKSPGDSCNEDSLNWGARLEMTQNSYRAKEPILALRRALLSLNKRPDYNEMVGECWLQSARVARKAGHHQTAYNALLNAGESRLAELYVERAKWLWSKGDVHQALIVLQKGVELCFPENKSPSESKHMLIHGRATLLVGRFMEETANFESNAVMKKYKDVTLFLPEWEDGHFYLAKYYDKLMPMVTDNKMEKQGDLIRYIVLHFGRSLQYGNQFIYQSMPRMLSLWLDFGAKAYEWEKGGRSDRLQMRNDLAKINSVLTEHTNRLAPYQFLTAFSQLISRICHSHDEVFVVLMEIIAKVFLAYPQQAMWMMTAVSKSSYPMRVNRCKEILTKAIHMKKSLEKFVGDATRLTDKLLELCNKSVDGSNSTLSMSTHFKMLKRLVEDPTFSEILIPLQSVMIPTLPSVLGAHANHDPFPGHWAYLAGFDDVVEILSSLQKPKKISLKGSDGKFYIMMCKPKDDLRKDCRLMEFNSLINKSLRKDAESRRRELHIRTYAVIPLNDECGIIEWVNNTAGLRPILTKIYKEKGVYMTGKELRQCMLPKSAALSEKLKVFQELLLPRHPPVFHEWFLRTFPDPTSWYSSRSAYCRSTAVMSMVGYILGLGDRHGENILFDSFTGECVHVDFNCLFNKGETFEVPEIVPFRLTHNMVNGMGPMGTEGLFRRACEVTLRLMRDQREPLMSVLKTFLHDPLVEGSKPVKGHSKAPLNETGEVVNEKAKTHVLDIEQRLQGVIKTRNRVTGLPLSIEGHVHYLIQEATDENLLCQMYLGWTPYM
T1 sequence (Q8BMG1 whole entry partner): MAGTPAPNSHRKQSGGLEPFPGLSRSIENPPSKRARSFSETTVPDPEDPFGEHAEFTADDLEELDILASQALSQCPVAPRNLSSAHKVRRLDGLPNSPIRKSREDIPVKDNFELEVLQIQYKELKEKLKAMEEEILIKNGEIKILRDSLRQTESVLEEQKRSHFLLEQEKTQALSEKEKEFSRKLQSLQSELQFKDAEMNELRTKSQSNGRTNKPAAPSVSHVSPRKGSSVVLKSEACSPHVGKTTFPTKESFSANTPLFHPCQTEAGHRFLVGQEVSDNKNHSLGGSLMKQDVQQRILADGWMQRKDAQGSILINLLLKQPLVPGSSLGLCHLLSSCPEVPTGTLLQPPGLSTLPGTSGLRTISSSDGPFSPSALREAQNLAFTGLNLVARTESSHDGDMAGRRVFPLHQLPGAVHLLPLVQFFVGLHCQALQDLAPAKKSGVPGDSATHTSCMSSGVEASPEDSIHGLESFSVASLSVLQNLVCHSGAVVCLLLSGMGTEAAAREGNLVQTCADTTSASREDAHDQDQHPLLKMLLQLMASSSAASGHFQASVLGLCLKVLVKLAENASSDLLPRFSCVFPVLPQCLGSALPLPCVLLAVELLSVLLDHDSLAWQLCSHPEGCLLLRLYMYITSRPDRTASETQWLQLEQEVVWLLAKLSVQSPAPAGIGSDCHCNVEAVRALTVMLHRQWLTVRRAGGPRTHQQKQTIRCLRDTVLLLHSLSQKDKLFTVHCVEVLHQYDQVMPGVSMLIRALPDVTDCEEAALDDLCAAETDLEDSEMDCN

phosphorylation of peptide by ATR: phosphorylated
Substance: NH2-Leu-Lys-Arg-Cys-Thr-Ser-Ser-Asn-Pro-Asn-Gln-Arg-Leu-Pro-Lys-COOH (H-LKRCTSSNPNQRLPK-OH) [IDH22]
